Source: US20140030295A1

Biological target: Full-length human SIRT1 (His-tagged) (human) (UniProt Q96EB6)
Assay: cell-based or functional assay

Chain of Full-length human SIRT1 (His-tagged) (human) (Q96EB6 2-747): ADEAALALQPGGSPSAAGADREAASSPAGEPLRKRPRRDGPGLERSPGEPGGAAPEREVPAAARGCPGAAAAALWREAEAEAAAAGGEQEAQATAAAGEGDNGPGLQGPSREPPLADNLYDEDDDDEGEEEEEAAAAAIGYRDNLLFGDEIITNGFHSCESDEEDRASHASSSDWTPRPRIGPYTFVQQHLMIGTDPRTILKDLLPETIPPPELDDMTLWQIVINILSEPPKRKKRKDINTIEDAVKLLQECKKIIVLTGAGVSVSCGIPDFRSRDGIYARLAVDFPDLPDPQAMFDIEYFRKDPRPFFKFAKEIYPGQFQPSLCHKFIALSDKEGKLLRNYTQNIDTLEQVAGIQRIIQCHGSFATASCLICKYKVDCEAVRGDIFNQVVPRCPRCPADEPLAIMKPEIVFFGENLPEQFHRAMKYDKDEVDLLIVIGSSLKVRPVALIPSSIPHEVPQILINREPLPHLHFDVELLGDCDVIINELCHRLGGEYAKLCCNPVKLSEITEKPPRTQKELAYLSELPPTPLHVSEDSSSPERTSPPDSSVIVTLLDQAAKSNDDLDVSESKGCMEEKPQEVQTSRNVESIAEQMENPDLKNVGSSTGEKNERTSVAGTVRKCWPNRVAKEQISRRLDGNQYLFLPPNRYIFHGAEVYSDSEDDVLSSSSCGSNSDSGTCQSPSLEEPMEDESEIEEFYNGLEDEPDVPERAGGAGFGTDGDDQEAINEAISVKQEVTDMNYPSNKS

Substance: synthetic Tat (aa 1-72)
- Tat concentration required for half maximal inhibition (IC50) of SIRT1; fluorescent deacetylation assay with acetylated p53 peptide (aa 379-382): 3.5 µM
